Data set [1] concerns the target T1, β-xylosidase BxTW1 (rBxTW1) (Talaromyces amestolkiae, UniProt A0A0H3W535).
T1 construct: mature BxTW1 without its signal peptide, expressed in Pichia pastoris GS115
T1 sequence (A0A0H3W535 22-797): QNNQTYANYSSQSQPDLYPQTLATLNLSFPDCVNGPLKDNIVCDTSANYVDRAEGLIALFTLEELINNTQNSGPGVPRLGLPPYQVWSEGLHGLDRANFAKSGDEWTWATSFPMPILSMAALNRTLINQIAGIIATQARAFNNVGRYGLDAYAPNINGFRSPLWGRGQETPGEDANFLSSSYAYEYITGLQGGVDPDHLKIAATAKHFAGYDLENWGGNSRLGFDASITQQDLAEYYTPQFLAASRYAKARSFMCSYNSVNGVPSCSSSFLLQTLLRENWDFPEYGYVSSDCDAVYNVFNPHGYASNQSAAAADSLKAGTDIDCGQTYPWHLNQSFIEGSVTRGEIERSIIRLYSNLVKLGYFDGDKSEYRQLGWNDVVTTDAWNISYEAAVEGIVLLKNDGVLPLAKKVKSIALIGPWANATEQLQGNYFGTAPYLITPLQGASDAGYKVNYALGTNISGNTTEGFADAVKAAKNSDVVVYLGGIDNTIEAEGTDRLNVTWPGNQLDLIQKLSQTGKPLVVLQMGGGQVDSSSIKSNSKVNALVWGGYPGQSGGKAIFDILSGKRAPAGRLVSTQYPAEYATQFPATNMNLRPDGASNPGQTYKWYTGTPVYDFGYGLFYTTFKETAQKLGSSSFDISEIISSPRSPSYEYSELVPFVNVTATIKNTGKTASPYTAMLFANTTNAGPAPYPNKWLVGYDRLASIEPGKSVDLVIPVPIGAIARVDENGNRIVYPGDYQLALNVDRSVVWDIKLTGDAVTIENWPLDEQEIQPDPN
The experiment in a line: competitive product inhibition of pNPX hydrolysis by purified enzyme. It counts as biochemical.

Data set [2] deals with recombinant β-xylosidase BxTW1 from Talaromyces amestolkiae (Talaromyces amestolkiae). The data set can be described thus: SEC; Superose 12 HR 10/30 column, molecular mass in native conditions, performed as described previously [20]. In general terms: SEC sorts molecules by how far they enter the pores of the column.
Substrate in data set [3]: OC1OC[C@@H](O[C@@H]2OC[C@@H](O[C@@H]3OC[C@@H](O)[C@H](O)[C@H]3O)[C@H](O)[C@H]2O)[C@H](O)[C@H]1O
The data set can be described thus: Michaelis-Menten kinetics of purified enzyme (Km). It counts as biochemical, Talaromyces amestolkiae.

Substrate in data set [4]: O=[N+]([O-])c1ccc(O[C@@H]2OC[C@H](O)[C@H](O)[C@H]2O)cc1
The experiment in a line: Michaelis-Menten kinetics of purified enzyme (Km). Format: biochemical, Talaromyces amestolkiae.

Substrate in data set [5]: OC1OC[C@@H](O[C@@H]2OC[C@@H](O)[C@H](O)[C@H]2O)[C@H](O)[C@H]1O
The data set can be described thus: Michaelis-Menten kinetics of purified enzyme (Km). It counts as biochemical, Talaromyces amestolkiae.

Substrate in data set [6]: OC1OC[C@@H](O[C@@H]2OC[C@@H](O[C@@H]3OC[C@@H](O[C@@H]4OC[C@@H](O)[C@H](O)[C@H]4O)[C@H](O)[C@H]3O)[C@H](O)[C@H]2O)[C@H](O)[C@H]1O
The experiment in a line: Michaelis-Menten kinetics of purified enzyme (Km). Format: biochemical, Talaromyces amestolkiae.

Substrate in data set [7]: O=[N+]([O-])c1ccc(O[C@@H]2OC[C@@H](O)[C@H](O)[C@H]2O)cc1
The data set can be described thus: Michaelis-Menten kinetics of purified enzyme (Km). It counts as biochemical, Talaromyces amestolkiae.

Substrate in data set [8]: O=[N+]([O-])c1ccc(O[C@@H]2O[C@@H](CO)[C@H](O)[C@H]2O)cc1
The experiment in a line: Michaelis-Menten kinetics of purified enzyme (Km). It counts as biochemical, Talaromyces amestolkiae.

Substrate in data set [9]: OC1OC[C@@H](O[C@@H]2OC[C@@H](O[C@@H]3OC[C@@H](O[C@@H]4OC[C@@H](O[C@@H]5OC[C@@H](O)[C@H](O)[C@H]5O)[C@H](O)[C@H]4O)[C@H](O)[C@H]3O)[C@H](O)[C@H]2O)[C@H](O)[C@H]1O
The experiment in a line: Michaelis-Menten kinetics of purified enzyme (Km). It counts as biochemical, Talaromyces amestolkiae.

Substrate in data set [10]: OC1OC[C@@H](O[C@@H]2OC[C@@H](O[C@@H]3OC[C@@H](O[C@@H]4OC[C@@H](O[C@@H]5OC[C@@H](O[C@@H]6OC[C@@H](O)[C@H](O)[C@H]6O)[C@H](O)[C@H]5O)[C@H](O)[C@H]4O)[C@H](O)[C@H]3O)[C@H](O)[C@H]2O)[C@H](O)[C@H]1O
The data set can be described thus: Michaelis-Menten kinetics of purified enzyme (Km). It counts as biochemical, Talaromyces amestolkiae.

One may read the Ki as the equilibrium dissociation constant of an inhibitor or competing ligand from its target. Lower therefore signals tighter binding. A word on the stoichiometry N: it is a count of units in the complex or per binding partner. The term Km denotes the concentration of substrate that gives half-maximal velocity. Broadly, the Vmax is the top rate of the reaction or transport when substrate is in excess. Usually kcat stands for the maximal rate divided by the concentration of active sites. As usually defined, the kcat/Km is the turnover number divided by the Michaelis constant.

Take `OC1OC[C@@H](O)[C@H](O)[C@H]1O` (stereo partly shown) [xylose]: in [1], the Ki came to 1700 ± 300 µM.
As for “recombinant β-xylosidase BxTW1 from Talaromyces amestolkiae (enzyme)”, the stoichiometry N in data set [2] is 2.

B1: β-xylosidase BxTW1 (rBxTW1) (Talaromyces amestolkiae) (protein)
chain: QNNQTYANYSSQSQPDLYPQTLATLNLSFPDCVNGPLKDNIVCDTSANYVDRAEGLIALFTLEELINNTQNSGPGVPRLGLPPYQVWSEGLHGLDRANFAKSGDEWTWATSFPMPILSMAALNRTLINQIAGIIATQARAFNNVGRYGLDAYAPNINGFRSPLWGRGQETPGEDANFLSSSYAYEYITGLQGGVDPDHLKIAATAKHFAGYDLENWGGNSRLGFDASITQQDLAEYYTPQFLAASRYAKARSFMCSYNSVNGVPSCSSSFLLQTLLRENWDFPEYGYVSSDCDAVYNVFNPHGYASNQSAAAADSLKAGTDIDCGQTYPWHLNQSFIEGSVTRGEIERSIIRLYSNLVKLGYFDGDKSEYRQLGWNDVVTTDAWNISYEAAVEGIVLLKNDGVLPLAKKVKSIALIGPWANATEQLQGNYFGTAPYLITPLQGASDAGYKVNYALGTNISGNTTEGFADAVKAAKNSDVVVYLGGIDNTIEAEGTDRLNVTWPGNQLDLIQKLSQTGKPLVVLQMGGGQVDSSSIKSNSKVNALVWGGYPGQSGGKAIFDILSGKRAPAGRLVSTQYPAEYATQFPATNMNLRPDGASNPGQTYKWYTGTPVYDFGYGLFYTTFKETAQKLGSSSFDISEIISSPRSPSYEYSELVPFVNVTATIKNTGKTASPYTAMLFANTTNAGPAPYPNKWLVGYDRLASIEPGKSVDLVIPVPIGAIARVDENGNRIVYPGDYQLALNVDRSVVWDIKLTGDAVTIENWPLDEQEIQPDPN
notes: mature BxTW1 without its signal peptide, expressed in Pichia pastoris GS115
B1: the Michaelis constant (Km) in data set [3] was determined as 190 ± 10 µM; in [4] it was 1600 ± 100 µM; in data set [5], 510 ± 30 µM; in data set [6], 200 ± 10 µM; in data set [7], 200 ± 10 µM; in data set [8], 4300 ± 300 µM. Besides, the Michaelis constant (Km) in data set [9] was 220 ± 10 µM; in data set [10], 210 ± 20 µM. Moreover, the maximal velocity (Vmax) stood at 9 µmol/min/mg in [3]; 8.3 µmol/min/mg in data set [4]; 26.4 µmol/min/mg in data set [5]; 6.34 µmol/min/mg in data set [6]; 20.8 µmol/min/mg in data set [7]; 14.9 µmol/min/mg in data set [8]. Further, the Vmax in data set [9] amounted to 4.48 µmol/min/mg; in data set [10], 4.27 µmol/min/mg. Moreover, the kcat in data set [3] is 30 s⁻¹; in data set [4], 28 s⁻¹; in [5], 87.9 s⁻¹; in data set [6], 21.1 s⁻¹; in data set [7] it was 69.3 s⁻¹; in data set [8] it was 49.8 s⁻¹. For the same molecule, the figures for the turnover number (kcat) in [9] and in [10] were 14.9 s⁻¹ and 14.2 s⁻¹, respectively. Further, the specificity constant (kcat/Km) in data set [3] came out at 160000 M⁻¹ s⁻¹; in data set [4] it was 17000 M⁻¹ s⁻¹; in [5], 170000 M⁻¹ s⁻¹; in [6], 100000 M⁻¹ s⁻¹; in [7], 336000 M⁻¹ s⁻¹; in [8] it was 12000 M⁻¹ s⁻¹. Besides, the catalytic efficiency (kcat/Km) was 68000 M⁻¹ s⁻¹ in data set [9] and 69000 M⁻¹ s⁻¹ in data set [10].
